# Measured values from patent publication US20230235054A1 (BIOATLA, published 2023).
# Positions count from the first letter of the chain named.
# T1: huNectin4-His (human, UniProt Q96NY8 32-349)
# T1 construct: Immobilized on the SPR chip; also called humanNectin4; human Nectin4; not shown: His tag
# T1 sequence (looked up): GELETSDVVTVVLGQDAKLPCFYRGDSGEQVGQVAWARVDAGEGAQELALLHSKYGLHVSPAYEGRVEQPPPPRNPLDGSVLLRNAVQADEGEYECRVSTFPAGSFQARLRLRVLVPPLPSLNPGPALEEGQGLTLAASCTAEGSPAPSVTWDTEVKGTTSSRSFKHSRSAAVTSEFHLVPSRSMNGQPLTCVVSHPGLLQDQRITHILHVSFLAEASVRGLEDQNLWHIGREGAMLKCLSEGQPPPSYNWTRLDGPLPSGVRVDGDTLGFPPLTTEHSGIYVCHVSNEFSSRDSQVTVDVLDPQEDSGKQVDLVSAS
# T2: human Nectin-4 on cells (human, UniProt Q96NY8 32-510)
# T2 construct: whole, on cells; also called HEK293 cells expressing human Nectin-4; T47D cells that express human Nectin-4
# T2 sequence (looked up): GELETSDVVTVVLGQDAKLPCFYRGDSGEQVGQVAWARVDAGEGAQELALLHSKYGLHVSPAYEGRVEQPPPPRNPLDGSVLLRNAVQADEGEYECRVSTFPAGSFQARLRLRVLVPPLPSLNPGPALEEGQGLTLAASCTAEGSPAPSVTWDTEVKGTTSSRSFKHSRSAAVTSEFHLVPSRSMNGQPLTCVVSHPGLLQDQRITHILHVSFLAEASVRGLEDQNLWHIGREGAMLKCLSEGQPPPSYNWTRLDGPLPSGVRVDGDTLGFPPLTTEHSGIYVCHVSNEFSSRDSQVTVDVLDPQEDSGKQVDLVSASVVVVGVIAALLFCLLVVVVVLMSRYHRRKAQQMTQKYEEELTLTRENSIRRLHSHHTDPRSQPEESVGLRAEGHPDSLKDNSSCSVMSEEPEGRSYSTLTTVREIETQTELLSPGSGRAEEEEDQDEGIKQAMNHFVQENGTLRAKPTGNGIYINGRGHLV
# T3: cyno Nectin-4 on cells (cyno, UniProt A0A2K5WES1 32-510)
# T3 construct: whole, on cells; also called HEK293 cells expressing cyno Nectin-4; cyno Nectin-4 cells
# T3 sequence: T2 sequence (looked up) with V39A, I230V, A437T
# B1: BAP-143-wildtype (antibody, V domains shown)
# VH: EVQLVESGGGLVQPGGSLRLSCAASGFTFSSYNMNWVRQAPGKGLEWVSYISSSSSTIYYADSVKGRFTISRDNAKNSLSLQMNSLRDEDTAVYYCARAYYYGMDVWGQGTTVTVSS
# VL: DIQMTQSPSSVSASVGDRVTITCRASQGISGWLAWYQQKPGKAPKFLIYAASTLQSGVPSRFSGSGSGTDFTLTISSLQPEDFATYYCQQANSFPPTFGGGTKVEIK
# notes: 150 kDa used in SPR; also called BAP143-00-00; benchmark (BM)
# B2: BAP-143-00-03 (antibody, V domains shown)
# VH: B1 VH
# VL: B1 VL with P96D
# notes: Used as a conjugate with a linker payload (CAB ADC)
# B3: BAP-143-00-05 (antibody, V domains shown)
# VH: B1 VH with R98E
# VL: B1 VL
# notes: as for B2
# B4: BAP-143-00-04 (antibody, V domains shown)
# VH: B1 VH with M34D
# VL: B1 VL
# notes: as for B2
# B5: BAP-143-00-06 (antibody, V domains shown)
# VH: B1 VH with M104D
# VL: B1 VL
# notes: as for B2
# B6: BAP-143-00-01 (antibody, V domains shown)
# VH: B1 VH
# VL: B1 VL with L33E
# notes: as for B2
# B7: BAP-143-00-02 (antibody, V domains shown)
# VH: B1 VH
# VL: B1 VL with F94E
# notes: as for B2
# Molecular target: T1, huNectin4-His
# Assay: SPR, huNectin4-His immobilized, pH 6.0
# Method: Binding kinetics of anti-Nectin4 antibodies were measured by surface plasmon resonance using a SPR2/4 instrument (Sierra Sensors, Hamburg, Germany) and flat amine sensor chips. The SPR sensor contained four flow cells (FC1-FC4), each of which was addressed individually or in groups. huNectin4-His was immobilized in FC2, and cynoNectin4-mFc in FC4. No protein was immobilized in FC1 and FC3 which were used as control surfaces for FC2 and FC4, respectively.
# All injections were done at a flow rate of 25 μL/min at 25° C. The sensor surface was activated with 1-ethyl-3-(3-dimethylaminopropyl)-carbodiimide (EDC) and N-hydroxysuccinimide (NHS) (200 mM/50 mM) for 480 seconds. HuNectin4-His (2 μg/mL in 10 mM NaAc, pH4.5) was injected for 480s and the surface was inactivated by injecting 1M ethanolamine-HCl for 480s. CynoNectin4 was immobilized using the same conditions as described for huNectin4-His, except that the cynoNectin4 was diluted into 10 mM NaAc buffer having pH 5.0. The control surface was activated and deactivated using the same conditions, but without injecting protein. PBST buffer (PBS pH 7.4 with 0.05% TWEEN20™) was used as running buffer for the surface preparation. The running solution was switched to PBST with 30 mM sodium bicarbonate with the pH adjusted as indicated in the figures before the analyte injections. The instrument was equilibrated with the running solution for one hour before the first analyte injection.
# The off-rate was measured for 360s. The chip surface was regenerated after each cycle of interaction analysis by injecting 6 μL of 10 mM glycine (pH 2.0). Flow cells 1 and 3 without immobilized protein were used as control surfaces for reference subtraction.
Kd [nM],koff [s⁻¹],kon [M⁻¹ s⁻¹],Binder
1.49,–,–,B1
6.02,0.00122,203000,B2
6.37,0.00242,380000,B3
2.58,0.00155,602000,B4
1.61,0.00114,707000,B5
12.3,0.00367,298000,B6

# Molecular target: T2, human Nectin-4 on cells
# Assay: FACS, HEK293 cells expressing human Nectin-4
# Method: FACS analysis was carried out using HEK293 cells expressing human Nectin-4.
row,Ratio (pH 7.4/6.0) of EC50,Binder
1,1.2,B1
2,2,B2
3,1.7,B3
4,1.6,B7
5,2.1,B4
6,1.2,B5
7,3.3,B6

# Molecular target: T3, cyno Nectin-4 on cells
# Assay: FACS, HEK293 cells expressing cyno Nectin-4
row,Ratio (pH 7.4/6.0) of EC50,Binder
1,1.7,B1
2,3.6,B2
3,2.5,B3
4,2.3,B7
5,2.1,B4
6,3.2,B5
7,4.1,B6

# Molecular target: T2, human Nectin-4 on cells
# Assay: FACS, T47D cells
row,Ratio (pH 7.4/6.0) of EC50,Binder
1,0.9,B1
2,3.6,B2
3,2.4,B3
4,2.9,B7
5,2.1,B4
6,2.6,B5
7,6.7,B6
